Earlier results, collected in paper PMC11794116.

Molecular target: CD16a (F176) (Homo sapiens) (UniProt P08637)
Sequence (P08637 17-208): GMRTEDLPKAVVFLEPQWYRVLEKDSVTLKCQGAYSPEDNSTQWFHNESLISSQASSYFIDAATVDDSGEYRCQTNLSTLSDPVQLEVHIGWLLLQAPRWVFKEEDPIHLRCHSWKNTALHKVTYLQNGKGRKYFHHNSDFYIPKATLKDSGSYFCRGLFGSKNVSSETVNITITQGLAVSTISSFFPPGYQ

Kd: 1070 nM
Substance: trastuzumab Fc
